Results taken from doi:10.1101/2022.12.14.520480 (bioRxiv, 2022).

Target: GST-LC3B (UniProt Q9GZQ8 1-120)
Experiment: pull-down

binding result: binds
B1: MYC-tagged LIMP2 wild type (natural protein)
chain: MGRCCFYTAGTLSLLLLVTSVTLLVARVFQKAVDQSIEKKIVLRNGTEAFDSWEKPPLPVYTQFYFFNVTNPEEILRGETPRVEEVGPYTYRELRNKANIQFGDNGTTISAVSNKAYVFERDQSVGDPKIDLIRTLNIPVLTVIEWSQVHFLREIIEAMLKAYQQKLFVTHTVDELLWGYKDEILSLIHVFRPDISPYFGLFYEKNGTNDGDYVFLTGEDSYLNFTKIVEWNGKTSLDWWITDKCNMINGTDGDSFHPLITKDEVLYVFPSDFCRSVYITFSDYESVQGLPAFRYKVPAEILANTSDNAGFCIPEGNCLGSGVLNVSICKNGAPIIMSFPHFYQADERFVSAIEGMHPNQEDHETFVDINPLTGIILKAAKRFQINIYVKKLDDFVETGDIRTMVFPVMYLNESVHIDKETASRLKSMINTTLIITNIPYIIMALGVFFGLVFTWLACKGQGSMDEGTADERAPLIRT
